For test [1], the target named is human CD47 on the cell surface (human). Description: cell binding to HT1080 tumor cells in a 1:10 mixture with red blood cells.
For test [2] the target is unchanged. Description: cell binding to red blood cells in a 1:10 mixture of HT1080 cells and red blood cells.

With “monospecific anti-CD47 mAb 5F9 (antibody)”, the EC50 in test [1] and in test [2] was less than 0.1 nM in each case.

Values taken from patent US20210179716A1.
